Patent publication US20030008334A1 (published 2003)

B1: Full-length human nectin-1α expressed on L cells (nectin-1α-L cells) (receptor, UniProt Q15223 31-517, looked up)
chain: QVVQVNDSMYGFIGTDVVLHCSFANPLPSVKITQVTWQKSTNGSKQNVAIYNPSMGVSVLAPYRERVEFLRPSFTDGTIRLSRLELEDEGVYICEFATFPTGNRESQLNLTVMAKPTNWIEGTQAVLRAKKGQDDKVLVATCTSANGKPPSVVSWETRLKGEAEYQEIRNPNGTVTVISRYRLVPSREAHQQSLACIVNYHMDRFKESLTLNVQYEPEVTIEGFDGNWYLQRMDVKLTCKADANPPATEYHWTTLNGSLPKGVEAQNRTLFFKGPINYSLAGTYICEATNPIGTRSGQVEVNITEFPYTPSPPEHGRRAGPVPTAIIGGVAGSILLVLIVVGGIVVALRRRRHTFKGDYSTKKHVYGNGYSKAGIPQHHPPMAQNLQYPDDSDDEKKAGPLGGSSYEEEEEEEEGGGGGERKVGGPHPKYDEDAKRPYFTVDEAEARQDGYGDRTLGYQYDPEQLDLAENMVSQNDGSFISKKEWYV
notes: whole, on cells

Tests used:
[1] = biological target: MBP-afadin-PDZ (MBP-fusion protein of the PDZ domain of afadin) (UniProt O35889); test: affinity chromatography on MBP-afadin-PDZ amylose beads, eluate on SDS-PAGE
[2] = biological target: the molecule itself; test: immunofluorescence microscopy of co-cultured nectin-1α-L and nectin-2α-L cells
Description: Chemical cross-linking was done according to the method described in references (Blood 92: 4602-4611, 1998; J. Biol. Chem., 275: 613-618, 2000). Immunoprecipitation was performed according to the method described in references (J. Cell Biol., 145: 539-549, 1999; J. Biol. Chem., 275: 613-618, 2000). Immunofluorescence microscopy of cultured cells was done according to the method described in references (J. Cell Biol., 139: 517-528, J. Cell Biol., 145: 539-549, 1999; J. Biol. Chem., 275: 613-618, 2000). Protein concentrations were determined with bovine serum albumin as a control, according to the method described in a reference (Anal. Biochem., 72: 248-254, 1976). SDS-PAGE was done as described (Nature, 227: 680-685, 1970).
When nectin-1α-L cells were co-cultured with nectin-2α-L cells, nectin-1α and nectin-2α were localized in the cell-cell contact sites of the respective L cells (FIG. 5, A1-A3). However, neither nectin-1α or nectin-2α was detected in the contact sites of the two types of the L cells. In contrast, when nectin-3α-L cells were co-cultured with nectin-1α-L cells, nectin-3α and nectin-1α coexisted in the cell-cell contact site of the two types of the L cells (FIG. 5, B1-B3). The same result was obtained in co-culture of nectin-3α-L cells and nectin-2α-L cells (FIG. 5, C1-C3).

Row | Molecule | stoichiometry of binding (nectin-3α:afadin ratio) [1] | binding result [2]
1 | GST-nectin-3α-CP (GST-fusion protein of the cytoplasmic region of nectin-3α) (from UniProt Q9JLB9 433-549) | 1 | –
2 | B1 | – | binds
